Patent publication US20140056918A1 (Novo Nordisk, published 2014)

T1: Human OSCAR (osteoclast-associated receptor), full length, on cells (human)
T1 construct: The signal peptide limits cannot be read from the text; also called hOSCAR; HEK-OSCAR cells
T1 chain: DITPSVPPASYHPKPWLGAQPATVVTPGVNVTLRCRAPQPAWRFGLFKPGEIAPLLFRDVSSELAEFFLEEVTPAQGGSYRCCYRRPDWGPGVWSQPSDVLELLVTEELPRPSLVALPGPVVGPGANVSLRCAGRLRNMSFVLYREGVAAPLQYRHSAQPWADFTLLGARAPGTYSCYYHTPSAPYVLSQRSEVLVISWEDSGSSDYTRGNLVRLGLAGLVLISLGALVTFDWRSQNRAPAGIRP

T2: Human OSCAR-S1a (naturally occurring soluble isoform) (human, UniProt Q8IYS5 19-282)
T2 construct: Recombinant soluble isoform used as SPR analyte; also called OSCAR 1Sa
T2 sequence: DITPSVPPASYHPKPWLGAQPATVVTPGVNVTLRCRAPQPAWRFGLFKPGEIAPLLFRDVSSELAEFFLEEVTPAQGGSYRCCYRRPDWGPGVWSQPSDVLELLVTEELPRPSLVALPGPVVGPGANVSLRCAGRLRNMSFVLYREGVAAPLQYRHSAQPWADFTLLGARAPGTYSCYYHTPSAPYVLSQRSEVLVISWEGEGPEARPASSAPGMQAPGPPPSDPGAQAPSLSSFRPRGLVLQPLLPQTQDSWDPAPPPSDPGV

B1: 3F7A9 (antibody, V domains shown)
VH: EIQLQQSGPELVKPGASVKVSCKASGYVFTSYNMYWVKQSHGKSLEWIGYIDPYNGGTRYNQKFKGKATLTVDKSSSTAYMHLNSLTSEDSAVYYCARLDYYGNFYWGQGTTLTVSS
VL: DIKMTQSPSSMYASLGERVTITCKASQDINSFLSWLQQKPGKSPKTLIYRANRLVDGVPSRFSGSGSGQDYSLTISSLEYEDMGIYYCLQYDDFPYTFGGGTKLEIKR
notes: Mouse anti-human OSCAR mAb (its isotype control is mIgG1); The heavy chain entry covers only VH-CH1 and the start of the hinge; also called 3F7A9-1
B2: Human OSCAR-ECD (recombinant extracellular domain of human OSCAR) (receptor)
chain: DITPSVPPASYHPKPWLGAQPATVVTPGVNVTLRCRAPQPAWRFGLFKPGEIAPLLFRDVSSELAEFFLEEVTPAQGGSYRCCYRRPDWGPGVWSQPSDVLELLVTEELPRPSLVALPGPVVGPGANVSLRCAGRLRNMSFVLYREGVAAPLQYRHSAQPWADFTLLGARAPGTYSCYYHTPSAPYVLSQRSEVLVISWEDSGSSDYTR
notes: also called OSACAR-ECD
B3: 13F5A5 (antibody, V domains shown)
VH: EVQLVQSGAEVKKPGESLKISCKGSGYSFTSYWIVWVRQMPGKGLEWMGSIYPGDSDARYSPSFQGQVTISADKSISTAYLQWSSLKASDTAMYYCARQKITMVRGVIITPLDGMDVWGQGTTVTVSS
VL: not shown
notes: Fully human anti-OSCAR mAb from HuMab mice; also called 13F5A5 (Hu)
B4: 4F3B (antibody, V domains shown)
VH: QVQLQQSGAELAKPGASVKMSCKASGFTFTSYWMHWVKQRPGQGLEWIGYINPSTDYTEYNQKFKDKATLTADKSSSTAYMQLSSLTSEDSAVYYCARRSPFAMDYWGQGTSVTVSS
VL: DIVMTQSPSSLTVTAGEKVTMSCKSSQSLLNSGNQKNYLTWYQQKPGQPPKVLIYWASTRESGVPDRFTGSGSGTDFTLTISSVQAEDLAVYYCQNDYSYPLTFGTGTKLELKR
notes: Mouse anti-human OSCAR mAb (its isotype control is mIgG1); The heavy chain entry covers only VH-CH1 and the start of the hinge; It was fluorescein-labelled in the peptide array and Alexa Fluor 647-labelled in the flow binning; also called mAb 4F3B

Assays:
[1] = biological target: B2; experiment: SPR (Biacore T100), mAb coupled or captured on chip, OSCAR-ECD injected, 1:1 fit
Protocol: The kinetic parameters (kₐ, kd and KD) for the interaction were calculated using a 1:1 interaction Langmuir fitting model.

[2] = biological target: B2; experiment: SPR competition, 50 nM OSCAR-ECD premixed with mAb, over ColI immobilised at ca 150 RU
Protocol: (§1) The experiment was performed using a Biacore T 100 instrument (GE Healthcare). Human ColI (Sigma, # C5483) was diluted with 10 mM NaOAc, pH 4.5 to 10 μg/ml and immobilized on a Biacore CM3 sensor chip (GE Healthcare) using amine coupling chemistry (GE Healthcare). Immobilization was performed according to the standard procedure, but at 4° C. in order to prevent aggregation of ColI, with immobilized levels of ca 150 RU on flow cell (FC) 2 and ca 300 RU on FC 4. A blank immobilization was performed on FC 1 & 3, which were used as reference cells. HBS-EP buffer (10 mM HEPES, 150 mM NaCl, 3 mM EDTA, 0.005% Polysorbat P20, pH7.4) was used as running buffer for the immobilization. Buffer containing HBS-EP/+0.1% BSA was used for the competition assay.
(§2) The competition experiment was performed at 4° C. at a flow rate of 50 μl/min. […] OSCAR was mixed with various concentrations of anti-OSCAR antibodies ranging from 0-5 μg/ml prior to injection. Binding curves were measured for 240 s followed by 200 s of dissociation. The chip surface was regenerated for 2×20 s with 10 mM glycine, pH 2.0 between assays. All assays were performed in duplicates.
(§3) Human ColI was immobilized to the surface of a Biacore sensor chip by amine coupling.

[3] = biological target: T1, Human OSCAR (osteoclast-associated …); experiment: flow cytometry on primary human monocytes, donor #1
Protocol: (§4) Cell number and viability were determined using a Cedex cell counter. The cells were diluted in washing buffer (1×PBS (—Ca²⁺/—Mg²⁺)+5% FBS+0.1% Na-azide) to […]. In the case of monocytes, the cells were further blocked by adding 10 μl of a hFcR blocker (Miltenyi, #130-059-901) and incubated for 10 minutes at 4° C. 50 μl of cells (50.000 cells/well) were seeded into 96 well round-bottomed microtiter plates. Hybridoma supernatants or purified antibodies (in serial dilutions) were added to the cells at 50 μl/well. The isotype-matched purified irrelevant human mAb or mouse mAb served as negative controls (mouse IgG1, BD, #553452; mouse IgG2a, BD, #557353; mouse IgG2b, BD, #557352). […] Cells were washed in PBS, re-suspended in fixation buffer (1×PBS (—Ca²⁺/—Mg²⁺), pH7.2+1% formalin (B&B, #LAB96751.0500) and analysed by FACS flow cytometer. EC₅₀ values were calculated using a GraphPad Prism 5 software.

[4] = biological target: T1, Human OSCAR (osteoclast-associated …); experiment: flow cytometry on primary human monocytes, donor #2
Protocol: as §4

[5] = biological target: B2; experiment: SPR competition, 50 nM OSCAR-ECD premixed with mAb, over immobilised collagen II; parameters: unit not given here
Protocol: (§5) The experiment was performed using a Biacore T 100 instrument (GE Healthcare). Human collagen 1 (Sigma, # C5483) and human collagen 2 (Millipore #CC052) were diluted with 10 mM NaOAc, pH 4.5 and immobilized on a Biacore CM3 sensor chip (GE Healthcare) using amine coupling chemistry (GE Healthcare). Immobilization was performed according to the standard procedure, but at 5° C. in order to prevent aggregation collagens, with immobilized levels of ca 250 RU on flow cells (FC) 2 and 4. A blank immobilization was performed on FC 1 & 3, which were used as reference cells. HBS-EP buffer (10 mM HEPES, 150 mM NaCl, 3 mM EDTA, 0.05% Polysorbat P20, pH7.4) was used as running buffer for the immobilization. Buffer containing HBS-EP/+0.1% BSA was used for the competition assay. The competition experiment was performed at 5° C. at a flow rate of 50 μl/min. […] OSCAR was mixed with various concentrations of anti-OSCAR antibodies ranging from 0-10 μg/ml prior to injection. Binding curves were measured for 360 s followed by 240 s of dissociation. The chip surface was regenerated for 2×20 s with 10 mM glycine, pH 2.0 between assays.
(§6) Human collagen I and II were immobilized to the surface of a Biacore sensor chip by amine coupling. […] It was hypothesized that an antibody inhibiting binding of OSCAR to collagen would lead to a concentration-dependent loss of signal, whereas a non-inhibiting antibody would enhance the signal due to the increased mass of the OSCAR-antibody complex.

[6] = biological target: B2; experiment: SPR competition, 50 nM OSCAR-ECD premixed with mAb, over ColI immobilised at ca 300 RU
Protocol: as §1, §2, §3

[7] = biological target: T1, Human OSCAR (osteoclast-associated …); experiment: cell-based or functional assay
[8] = biological target: T2, Human OSCAR-S1a (naturally occurring …); experiment: SPR competition, 50 nM OSCAR-S1a premixed with mAb, over ColI immobilised at ca 150 RU
Protocol: as §1, §2, §3

[9] = biological target: B2; experiment: SPR competition, 50 nM OSCAR-ECD premixed with mAb, over immobilised collagen I
Protocol: as §5, §6

[10] = biological target: T2, Human OSCAR-S1a (naturally occurring …); experiment: SPR competition, 50 nM OSCAR-S1a premixed with mAb, over ColI immobilised at ca 300 RU
Protocol: as §1, §2, §3

[11] = biological target: T3, Human collagen I (Sigma, #C5483) (human, UniProt P02452 162-1218; P08123 80-1119); experiment: SPR
T3 construct: Bought collagen preparation, immobilised by amine coupling or coated on plates; also called ColI; colI
T3 sequence (P02452 162-1218, chain 1 of 2): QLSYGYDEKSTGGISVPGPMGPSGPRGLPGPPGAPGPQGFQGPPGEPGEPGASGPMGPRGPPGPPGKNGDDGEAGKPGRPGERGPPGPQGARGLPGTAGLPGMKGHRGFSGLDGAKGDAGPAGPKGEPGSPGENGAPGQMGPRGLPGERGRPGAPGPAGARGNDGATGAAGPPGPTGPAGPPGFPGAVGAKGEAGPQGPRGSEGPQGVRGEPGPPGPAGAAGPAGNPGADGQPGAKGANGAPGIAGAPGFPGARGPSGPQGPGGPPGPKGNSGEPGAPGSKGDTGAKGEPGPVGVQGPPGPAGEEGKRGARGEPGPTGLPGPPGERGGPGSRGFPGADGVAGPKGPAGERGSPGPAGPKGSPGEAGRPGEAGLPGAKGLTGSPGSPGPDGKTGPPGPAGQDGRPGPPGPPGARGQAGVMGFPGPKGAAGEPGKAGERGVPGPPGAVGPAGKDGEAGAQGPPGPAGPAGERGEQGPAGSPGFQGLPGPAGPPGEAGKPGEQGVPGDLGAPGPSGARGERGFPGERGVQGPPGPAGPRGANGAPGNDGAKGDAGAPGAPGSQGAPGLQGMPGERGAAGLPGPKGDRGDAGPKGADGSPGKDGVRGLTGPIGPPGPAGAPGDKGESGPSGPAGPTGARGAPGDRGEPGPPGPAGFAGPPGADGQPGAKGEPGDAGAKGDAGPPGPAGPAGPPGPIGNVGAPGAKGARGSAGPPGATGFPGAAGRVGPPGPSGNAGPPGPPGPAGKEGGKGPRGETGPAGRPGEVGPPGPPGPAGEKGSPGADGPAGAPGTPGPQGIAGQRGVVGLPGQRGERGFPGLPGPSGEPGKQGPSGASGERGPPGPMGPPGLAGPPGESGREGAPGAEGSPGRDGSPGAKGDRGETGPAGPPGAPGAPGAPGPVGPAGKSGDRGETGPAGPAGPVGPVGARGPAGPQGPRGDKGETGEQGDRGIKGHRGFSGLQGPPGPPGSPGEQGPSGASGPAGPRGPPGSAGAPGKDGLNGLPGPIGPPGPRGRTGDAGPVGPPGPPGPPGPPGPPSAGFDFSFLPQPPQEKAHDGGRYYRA
T3 sequence (P08123 80-1119, chain 2 of 2): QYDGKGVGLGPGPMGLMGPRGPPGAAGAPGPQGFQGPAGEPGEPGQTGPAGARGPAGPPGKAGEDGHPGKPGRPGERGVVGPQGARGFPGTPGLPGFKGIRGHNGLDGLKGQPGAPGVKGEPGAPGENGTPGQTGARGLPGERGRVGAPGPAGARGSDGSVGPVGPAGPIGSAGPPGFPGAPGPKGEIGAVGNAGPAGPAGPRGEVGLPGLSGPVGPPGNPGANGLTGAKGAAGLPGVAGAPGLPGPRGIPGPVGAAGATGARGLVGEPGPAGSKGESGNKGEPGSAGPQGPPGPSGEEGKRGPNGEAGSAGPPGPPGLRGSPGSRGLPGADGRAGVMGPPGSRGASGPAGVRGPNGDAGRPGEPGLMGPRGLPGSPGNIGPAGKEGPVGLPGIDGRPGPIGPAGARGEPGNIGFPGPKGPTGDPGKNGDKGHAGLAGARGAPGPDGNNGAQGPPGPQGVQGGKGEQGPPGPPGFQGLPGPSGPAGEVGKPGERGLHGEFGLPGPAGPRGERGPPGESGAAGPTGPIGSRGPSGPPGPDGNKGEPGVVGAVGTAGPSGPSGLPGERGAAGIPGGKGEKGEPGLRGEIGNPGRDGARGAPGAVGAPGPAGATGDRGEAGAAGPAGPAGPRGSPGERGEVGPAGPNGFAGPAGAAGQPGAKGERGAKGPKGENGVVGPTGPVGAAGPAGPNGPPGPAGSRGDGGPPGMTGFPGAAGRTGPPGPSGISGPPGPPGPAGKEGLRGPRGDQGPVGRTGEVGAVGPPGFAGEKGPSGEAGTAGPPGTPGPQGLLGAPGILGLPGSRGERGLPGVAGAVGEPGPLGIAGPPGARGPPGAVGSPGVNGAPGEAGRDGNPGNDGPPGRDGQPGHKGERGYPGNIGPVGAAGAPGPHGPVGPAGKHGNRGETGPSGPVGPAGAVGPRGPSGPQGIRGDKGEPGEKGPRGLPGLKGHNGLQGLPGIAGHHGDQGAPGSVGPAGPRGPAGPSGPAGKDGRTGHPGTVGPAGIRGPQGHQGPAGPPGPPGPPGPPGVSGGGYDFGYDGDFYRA

Kd [1] [nM]	Binding [RU] of OSCAR to ColI with 5 µg mAb [2] [RU]	EC50 [3] [nM]	EC50 [4] [nM]	binding of OSCAR-ECD to collagen II with 10 µg/mL mAb [5]	Binding [RU] of OSCAR to ColI with 5 µg mAb [6] [RU]	IC50 (IL-8), ColI-induced IL-8 release from moDC, Donor 1 [7] [nM]	IC50 (IL-8), ColI-induced IL-8 release from moDC, Donor 2 [7] [nM]	IC50 (IL-8), ColI-induced IL-8 release from moDC, Donor 3 [7] [nM]	IC50 (IL-8), ColI-induced IL-8 release from moDC, Donor 4 [7] [nM]	IC50 (IL-8), ColI-induced IL-8 release from moDC, Donor 5 [7] [nM]	IC50 (IL-8), ColI-induced IL-8 release from moDC, Donor 6 [7] [nM]	Binding [RU] of OSCAR to ColI with 5 µg mAb [8] [RU]	binding of OSCAR-ECD to collagen I with 10 µg/mL mAb [9]	Binding [RU] of OSCAR to ColI with 5 µg mAb [10] [RU]	Kd [11] [nM]	Binder
9.1	82.5	1.79	0.14	246	130	0.16	0.06	0.41	0.06	0.05	0.1	58.9	132	92.6		B1
															255	B2
0.7	1.4	4.02	2.18	1.3	5.1	2			< 0.01	0.23	0.06	-0.2	-1.4	2		B3
1.7	0.9	0.66	0.32	6.7	3.6	0.19		0.4	0.12	0.43	0.24	-0.3	0.7	1.4		B4
